Publication PMC6555819, “Comprehensive study of nuclear receptor DNA binding provides a revised framework for understanding receptor specificity”
Positions count from the first letter of the chain named.

B1: NRC3_wobSeed102_DR4_C12T_o1 (dsDNA)
DNA 1: GCCCTAGCAGGTCAATCTGGGTCACTCAAGGCTTGAGCGATTGACAGCGTAGAATGAAGG
DNA 2: CCTTCATTCTACGCTGTCAATCGCTCAAGCCTTGAGTGACCCAGATTGACCTGCTAGGGC
B2: NRC3_wobSeed102_DR4_G21A_o1 (dsDNA)
DNA 1: B1 DNA 1 with T12C, G21A
DNA 2: B1 DNA 2 with C40T, A49G
B3: NRC3_wobSeed136_DR5_T12C_o1 (dsDNA)
DNA 1: GCTAGCCTAGGCCATTCAGGGGCCAGTATAGAAAGCGCGATTGACAGCGTAGAATGAAGG
DNA 2: CCTTCATTCTACGCTGTCAATCGCGCTTTCTATACTGGCCCCTGAATGGCCTAGGCTAGC
B4: NRC3_wobSeed27_DR1_G18A_o1 (dsDNA)
DNA 1: GCACTCGGAGGACAAAGATCAGAGCTACGCCAGTGAGCGATTGACAGCGTAGAATGAAGG
DNA 2: CCTTCATTCTACGCTGTCAATCGCTCACTGGCGTAGCTCTGATCTTTGTCCTCCGAGTGC
B5: NRC3_wobSeed101_DR4_C18G_o1 (dsDNA)
DNA 1: GCCCTTACGGGTCACTCGAGGTTATAGCATCGGAGTGCGATTGACAGCGTAGAATGAAGG
DNA 2: CCTTCATTCTACGCTGTCAATCGCACTCCGATGCTATAACCTCGAGTGACCCGTAAGGGC
B6: NRC3_wobSeed122_DR5_C24A_o1 (dsDNA)
DNA 1: GCGCTAGTTGGTCAGTAAAAGGTAACACACCGGTCGGCGATTGACAGCGTAGAATGAAGG
DNA 2: CCTTCATTCTACGCTGTCAATCGCCGACCGGTGTGTTACCTTTTACTGACCAACTAGCGC
B7: NRC3_wobSeed108_DR4_T23C_o1 (dsDNA)
DNA 1: GCGCGACTGGGGCAAAGCAGGTCACCATAAGGTTGGGCGATTGACAGCGTAGAATGAAGG
DNA 2: CCTTCATTCTACGCTGTCAATCGCCCAACCTTATGGTGACCTGCTTTGCCCCAGTCGCGC
B8: NRC3_wobSeed121_DR5_T8C_o1 (dsDNA)
DNA 1: GCCAAACCAGGTCACCGGAAGGTCAAAGTCCGCATGGCGATTGACAGCGTAGAATGAAGG
DNA 2: CCTTCATTCTACGCTGTCAATCGCCATGCGGACTTTGACCTTCCGGTGACCTGGTTTGGC
B9: NRC3_wobSeed49_DR2_A15T_o1 (dsDNA)
DNA 1: GCCAAACTAGGTCATGAGGTCAAAGTCCGCTTCCCGGCGATTGACAGCGTAGAATGAAGG
DNA 2: CCTTCATTCTACGCTGTCAATCGCCGGGAAGCGGACTTTGACCTCATGACCTAGTTTGGC
B10: NRC3_wobSeed118_DR4_G24A_o1 (dsDNA)
DNA 1: GCTTACCAAGGTGAGCTGAGGTCATTGATCCAACTCGCGATTGACAGCGTAGAATGAAGG
DNA 2: CCTTCATTCTACGCTGTCAATCGCGAGTTGGATCAATGACCTCAGCTCACCTTGGTAAGC
B11: NRC3_wobSeed118_DR4_A8G_o1 (dsDNA)
DNA 1: B10 DNA 1 with A8G, A24G
DNA 2: B10 DNA 2 with T37C, T53C
B12: NRC3_wobSeed118_DR4_G15C_o1 (dsDNA)
DNA 1: B10 DNA 1 with G15C, A24G
DNA 2: B10 DNA 2 with T37C, C46G
B13: NRC3_wobSeed52_DR2_C21G_o1 (dsDNA)
DNA 1: GCCCTACTGGGCCATCAGGTGATTGATATCAACGTTGCGATTGACAGCGTAGAATGAAGG
DNA 2: CCTTCATTCTACGCTGTCAATCGCAACGTTGATATCAATCACCTGATGGCCCAGTAGGGC
B14: NRC3_wobSeed110_DR4_T19A_o1 (dsDNA)
DNA 1: GCTCTGCTAGGTCAACGAAGGTCAGCTAATCTGCTAGCGATTGACAGCGTAGAATGAAGG
DNA 2: CCTTCATTCTACGCTGTCAATCGCTAGCAGATTAGCTGACCTTCGTTGACCTAGCAGAGC
B15: NRC3_wobSeed100_DR4_A17T_o1 (dsDNA)
DNA 1: GCCCTACTGGGCCACGTAAGGTCATTGATTCAGTGAGCGATTGACAGCGTAGAATGAAGG
DNA 2: CCTTCATTCTACGCTGTCAATCGCTCACTGAATCAATGACCTTACGTGGCCCAGTAGGGC
B16: NRC3_wobSeed98_DR4_T8G_o1 (dsDNA)
DNA 1: GCACTAGGTGGTCAGCTGAGGTCACACACAATTCGGGCGATTGACAGCGTAGAATGAAGG
DNA 2: CCTTCATTCTACGCTGTCAATCGCCCGAATTGTGTGTGACCTCAGCTGACCACCTAGTGC
B17: NRC3_wobSeed37_DR1_A25G_o1 (dsDNA)
DNA 1: GCCGTCCAAGGTCAAAGGTCAGTGGAGAGATGACGGGCGATTGACAGCGTAGAATGAAGG
DNA 2: CCTTCATTCTACGCTGTCAATCGCCCGTCATCTCTCCACTGACCTTTGACCTTGGACGGC
B18: NRC3_wobSeed85_DR3_A16C_o1 (dsDNA)
DNA 1: GCCGTCCAAGGTCAGCGAGGTCAGTGAATGCCGAGTGCGATTGACAGCGTAGAATGAAGG
DNA 2: CCTTCATTCTACGCTGTCAATCGCACTCGGCATTCACTGACCTCGCTGACCTTGGACGGC
B19: NRC3_wobSeed103_DR4_A13T_o1 (dsDNA)
DNA 1: GCGCATATAGGTTATACAAGGTGAAAGTCCGATTGTGCGATTGACAGCGTAGAATGAAGG
DNA 2: CCTTCATTCTACGCTGTCAATCGCACAATCGGACTTTCACCTTGTATAACCTATATGCGC
B20: NRC3_wobSeed103_DR4_A16T_o1 (dsDNA)
DNA 1: B19 DNA 1 with T13A, A16T
DNA 2: B19 DNA 2 with T45A, A48T
B21: NRC3_wobSeed119_DR4_T21G_o1 (dsDNA)
DNA 1: GCGGAACGAGGGCATTCGAGGTGATAGCATGGCGATGCGATTGACAGCGTAGAATGAAGG
DNA 2: CCTTCATTCTACGCTGTCAATCGCATCGCCATGCTATCACCTCGAATGCCCTCGTTCCGC
B22: NRC3_wobSeed2_DR0_G16C_o1 (dsDNA)
DNA 1: GCCCTAGTTGGTCAACGTCACACACGCTATAGGTACGCGATTGACAGCGTAGAATGAAGG
DNA 2: CCTTCATTCTACGCTGTCAATCGCGTACCTATAGCGTGTGTGACGTTGACCAACTAGGGC
B23: NRC3_wobSeed73_DR3_A16T_o1 (dsDNA)
DNA 1: GCCAAACTAGGTCACTGAGGTCAAAGTCCGTGCGTAGCGATTGACAGCGTAGAATGAAGG
DNA 2: CCTTCATTCTACGCTGTCAATCGCTACGCACGGACTTTGACCTCAGTGACCTAGTTTGGC
B24: NRC3_wobSeed114_DR4_G17C_o1 (dsDNA)
DNA 1: GCAATACAGGGTCATCCTAGGCCAGAGTACGCACAGGCGATTGACAGCGTAGAATGAAGG
DNA 2: CCTTCATTCTACGCTGTCAATCGCCTGTGCGTACTCTGGCCTAGGATGACCCTGTATTGC
B25: NRC3_wobSeed114_DR4_T18G_o1 (dsDNA)
DNA 1: B24 DNA 1 with C17G, T18G
DNA 2: B24 DNA 2 with A43C, G44C
B26: NRC3_wobSeed120_DR4_A17T_o1 (dsDNA)
DNA 1: GCCCGAGTAGGTTACGTGGGGGCATTCAGTGCGAATGCGATTGACAGCGTAGAATGAAGG
DNA 2: CCTTCATTCTACGCTGTCAATCGCATTCGCACTGAATGCCCCCACGTAACCTACTCGGGC
B27: NRC3_wobSeed112_DR4_C22T_o1 (dsDNA)
DNA 1: GCTAGCCTAGGTCAGATCGGGTCAGTATACGCTATAGCGATTGACAGCGTAGAATGAAGG
DNA 2: CCTTCATTCTACGCTGTCAATCGCTATAGCGTATACTGACCCGATCTGACCTAGGCTAGC
B28: NRC3_wobSeed112_DR4_T8G_o1 (dsDNA)
DNA 1: B27 DNA 1 with T8G, T22C
DNA 2: B27 DNA 2 with A39G, A53C
B29: NRC3_wobSeed72_DR2_G18C_o1 (dsDNA)
DNA 1: GCTCGAGTAGGTTACGGCGGCATTCAGGGATGAAGAGCGATTGACAGCGTAGAATGAAGG
DNA 2: CCTTCATTCTACGCTGTCAATCGCTCTTCATCCCTGAATGCCGCCGTAACCTACTCGAGC
B30: NRC3_wobSeed111_DR4_G11A_o1 (dsDNA)
DNA 1: GCCGAACTAGATCAGAACAGGACAGTGAAGGATGATGCGATTGACAGCGTAGAATGAAGG
DNA 2: CCTTCATTCTACGCTGTCAATCGCATCATCCTTCACTGTCCTGTTCTGATCTAGTTCGGC
B31: NRC3_wobSeed106_DR4_T4G_o1 (dsDNA)
DNA 1: GCCGCGAAAGGTCGGTTGAGGTGAGTATACGGATAAGCGATTGACAGCGTAGAATGAAGG
DNA 2: CCTTCATTCTACGCTGTCAATCGCTTATCCGTATACTCACCTCAACCGACCTTTCGCGGC
B32: NRC3_wobSeed130_DR5_G24C_o1 (dsDNA)
DNA 1: GCCTCGAAAGGTCGTGCTCAGGTCAGTATACCAAACGCGATTGACAGCGTAGAATGAAGG
DNA 2: CCTTCATTCTACGCTGTCAATCGCGTTTGGTATACTGACCTGAGCACGACCTTTCGAGGC
B33: NRC3_wobSeed138_DR5_T12G_o1 (dsDNA)
DNA 1: GCGATACAGGGGCAGCTAGAGGCCAGAGTATGGAAAGCGATTGACAGCGTAGAATGAAGG
DNA 2: CCTTCATTCTACGCTGTCAATCGCTTTCCATACTCTGGCCTCTAGCTGCCCCTGTATCGC

Target: THRa:RXRa (Homo sapiens, UniProt P10827;P19793 full;full)
Sequence (P10827 other isoform, or with tags, fused parts or gaps, chain 1 of 2): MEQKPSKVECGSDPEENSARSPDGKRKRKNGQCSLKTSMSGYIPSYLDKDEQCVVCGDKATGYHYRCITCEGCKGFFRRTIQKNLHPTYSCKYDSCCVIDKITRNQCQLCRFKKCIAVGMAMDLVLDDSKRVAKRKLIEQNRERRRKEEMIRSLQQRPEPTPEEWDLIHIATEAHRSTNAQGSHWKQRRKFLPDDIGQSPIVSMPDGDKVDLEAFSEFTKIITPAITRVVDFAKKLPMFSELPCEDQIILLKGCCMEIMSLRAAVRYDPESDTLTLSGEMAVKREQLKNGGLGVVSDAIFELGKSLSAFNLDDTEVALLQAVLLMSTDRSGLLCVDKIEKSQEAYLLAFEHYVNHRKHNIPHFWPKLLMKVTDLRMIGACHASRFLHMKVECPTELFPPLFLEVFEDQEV
Sequence (P19793 whole entry, chain 2 of 2): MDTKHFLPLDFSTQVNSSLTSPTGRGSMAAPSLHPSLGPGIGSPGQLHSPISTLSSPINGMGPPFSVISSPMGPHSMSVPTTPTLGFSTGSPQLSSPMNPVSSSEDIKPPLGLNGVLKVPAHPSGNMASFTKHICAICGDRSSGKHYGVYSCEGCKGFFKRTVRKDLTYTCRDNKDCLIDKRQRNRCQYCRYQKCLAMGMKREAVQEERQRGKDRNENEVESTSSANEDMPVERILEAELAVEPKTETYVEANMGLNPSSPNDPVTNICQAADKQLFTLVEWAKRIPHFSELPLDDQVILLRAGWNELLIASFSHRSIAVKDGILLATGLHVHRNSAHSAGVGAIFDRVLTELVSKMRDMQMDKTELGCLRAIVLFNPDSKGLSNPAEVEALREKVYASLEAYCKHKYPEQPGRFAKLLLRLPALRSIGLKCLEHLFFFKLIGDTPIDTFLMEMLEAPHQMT
Experiment: no ligand; PBM; 90 nM : 90 nM RXRa; PBS pH 7.4, 2% milk, 0.02% Triton X-100, 1 mM DTT, BSA, 0.4 mg/ml salmon testes DNA
Conditions: tags: His kept;His cleaved; copies: 1;1; label: surface-attached array probe

Binder	binding signal
B1	5.18 PBM z-score against 500 random probes
B2	0.26 PBM z-score against 500 random probes
B3	0.47 PBM z-score against 500 random probes
B4	0.36 PBM z-score against 500 random probes
B5	5.34 PBM z-score against 500 random probes
B6	0.45 PBM z-score against 500 random probes
B7	4.79 PBM z-score against 500 random probes
B8	4.95 PBM z-score against 500 random probes
B9	4.8 PBM z-score against 500 random probes
B10	5.35 PBM z-score against 500 random probes
B11	5.02 PBM z-score against 500 random probes
B12	5.05 PBM z-score against 500 random probes
B13	0.39 PBM z-score against 500 random probes
B14	5.01 PBM z-score against 500 random probes
B15	4.98 PBM z-score against 500 random probes
B16	5.35 PBM z-score against 500 random probes
B17	5.12 PBM z-score against 500 random probes

Binder	binding signal
B18	4.81 PBM z-score against 500 random probes
B19	5.07 PBM z-score against 500 random probes
B20	4.81 PBM z-score against 500 random probes
B21	5.22 PBM z-score against 500 random probes
B22	0.39 PBM z-score against 500 random probes
B23	5.07 PBM z-score against 500 random probes
B24	5.26 PBM z-score against 500 random probes
B25	5.17 PBM z-score against 500 random probes
B26	4.87 PBM z-score against 500 random probes
B27	5.04 PBM z-score against 500 random probes
B28	4.92 PBM z-score against 500 random probes
B29	0.41 PBM z-score against 500 random probes
B30	0.34 PBM z-score against 500 random probes
B31	5.31 PBM z-score against 500 random probes
B32	4.84 PBM z-score against 500 random probes
B33	0.48 PBM z-score against 500 random probes
